{"source": "patent US6894154", "about": "(REGENTS OF THE UNIVERSITY OF MICHIGAN, dated 2005)", "binders": {"B1": {"name": "pLAM5′ (human laminC/GAL4 DNA binding domain) (other, UniProt P04386 1-147, looked up)", "chain": "MKLLSSIEQACDICRLKKLKCSKEKPKCAKCLKNNWECRYSPKTKRSPLTRAHLTEVESRLERLEQLFLLIFPREDLDMILKMDSLQDIKALLTGLFVQDNVNKDAVTDRLASVETDMPLTLRQHRISATSSSEESSNKGQRQLTVSSEEVVSREVSGIKAAYEAELGDARKTLDSVAKERARLQLELSKVREEFKELKARNTKKEGDLIAAQARLKDLEALLNSKEAALSTALSEKRTLEGELHDLRGQVAKLEAALGEAKKQLQDEMLRRVDAENRLQTMKEELDFQKNIYSEELRETKRRHETRLVEID", "notes": "Bought control plasmid (Clontech)"}, "B2": {"name": "in vitro translated hKIS from pcDNA3.1/His ([35S]-methionine-labeled or unlabeled, epitope-tagged) (protein)", "chain": "MAGSGCAWGAEPPRFLEAFGRLWQVQSRLGSGSSASVYRVRCCGNPGSPPGALKQFLPPGTTGAAASAAEYGFRKERAALEQLQGHRNIVTLYGVFTIHFSPNVPSRCLLLELLDVSVSELLLYSSHQGCSMWMIQHCARDVLEALAFLHHEGYVHADLKPRNILWSAENECFKLIDFGLSFKEGNQDVKYIQTDGYRAPEAELQNCLAQAGLQSDTECTSAVDLWSLGIILLEMFSGMKLKHTVRSQEWKANSSAIIDHIFASKAVVNAAIPAYHLRDLIKSMLHDDPSRRIPAEMALCSPFFSIPFAPHIEDLVMLPTPVLRLLNVLDDDYLGNEEEYEDVVEDVKEECQKYGPVVSLLVPKENPGRGQVFVEYANAGDSKAAQKLLTGRMFDGKFVVATFYPLSAYKRGYLYQTLL"}, "B3": {"name": "hKIS (human KIS), clone C21, fused to the GAL4 activating domain (enzyme, not shown: large carriers)", "chain": "B2 chain", "notes": "Prey of the yeast two-hybrid assay; also called the clones"}}, "key": {"[1]": {"molecular_target": "B3", "assay": "yeast two-hybrid, beta-galactosidase staining"}, "[2]": {"molecular_target": "NH2-terminal GST-p27^Kip1 with serine 10 to alanine (pGSTp27^Kip1 NH2S1OM)"}, "[3]": {"molecular_target": "T1, NH2-terminal GST-p27^Kip1", "T1 chain": "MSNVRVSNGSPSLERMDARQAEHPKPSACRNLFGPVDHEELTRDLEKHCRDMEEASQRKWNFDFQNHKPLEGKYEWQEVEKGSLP"}, "[4]": {"molecular_target": "p16^Ink4 as used in the in vitro phosphorylation assay"}, "[5]": {"molecular_target": "p21^Cip1 as used in the in vitro phosphorylation assay"}, "[6]": {"molecular_target": "T2, p57^Kip2 as used in the in vitro phosphorylation assay", "T2 sequence (P49918 1-316, species assumed, looked up)": "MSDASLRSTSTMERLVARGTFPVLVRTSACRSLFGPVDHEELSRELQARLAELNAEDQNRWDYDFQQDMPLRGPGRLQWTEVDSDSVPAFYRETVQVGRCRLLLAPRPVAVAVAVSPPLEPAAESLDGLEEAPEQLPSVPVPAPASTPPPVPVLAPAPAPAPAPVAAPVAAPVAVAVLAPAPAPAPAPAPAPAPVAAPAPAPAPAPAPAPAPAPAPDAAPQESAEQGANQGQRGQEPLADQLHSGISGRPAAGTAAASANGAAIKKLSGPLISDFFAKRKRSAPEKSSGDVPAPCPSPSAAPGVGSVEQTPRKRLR"}, "[7]": {"molecular_target": "purified recombinant p27^Kip1 (bacterial-produced)"}, "[8]": {"molecular_target": "T3, pVA3 (murine p53/GAL4 DNA binding domain) (murine, UniProt P04386 1-147; P02340 72-390)", "T3 construct": "Bought control plasmid (Clontech)", "assay": "yeast two-hybrid, beta-galactosidase staining"}}}
{"binder": "B1", "values": [{"measurement": "binding result", "setting": "[1]", "result": "no binding"}]}
{"binder": "B2", "values": [{"measurement": "in vitro phosphorylation assay", "setting": "[2]", "result": "mutation of serine 10 to alanine (S10A) abolished phosphorylation of GST-p27^Kip1"}, {"measurement": "in vitro phosphorylation assay", "setting": "[3]", "result": "phosphorylation of GST-p27^Kip1 was detected in the NH2.terminal region of the protein"}, {"measurement": "in vitro phosphorylation in the presence of ^32P-ATP", "setting": "[4]", "result": "hKIS did not phosphorylate p57^Kip2, p21^Cip1 or p16^Ink4"}, {"measurement": "in vitro phosphorylation in the presence of ^32P-ATP", "setting": "[5]", "result": "hKIS did not phosphorylate p57^Kip2, p21^Cip1 or p16^Ink4"}, {"measurement": "in vitro phosphorylation in the presence of ^32P-ATP", "setting": "[6]", "result": "hKIS did not phosphorylate p57^Kip2, p21^Cip1 or p16^Ink4"}, {"measurement": "in vitro phosphorylation in the presence of ^32P-ATP", "setting": "[7]", "result": "hKIS readily phosphorylated bacterial-produced p27^Kip1"}]}
{"binder": "B3", "values": [{"measurement": "binding result", "setting": "[8]", "result": "no binding"}]}
